This is an account of results in PMC6393287, “The RRM of the kRNA-editing protein TbRGG2 uses multiple surfaces to bind and remodel RNA”.

The target of series [1] is TbRGG2 RRM-Cterm (residues 203–320) (T. brucei). As to the kind of experiment: SEC; protein alone at 10 mg/ml on Superdex 75; 20 mM Tris-HCl pH 7.5, 150 mM NaCl, 5% glycerol, 1 mM DTT; elution volume compared with protein standards. A general note: In gel filtration, larger molecules generally elute earlier.
Series [2] has the same target. Kind of series: SEC; RRM-Cterm at 16 mg/ml mixed with equimolar U20 RNA, Superdex 75; 20 mM Tris-HCl pH 7.5, 150 mM NaCl, 5% glycerol, 1 mM DTT.
The target of a further series is TbRGG2 RRM W215A (Trypanosoma brucei, UniProt Q389P7 193-259, W205A). Kind of series: FP; FP: 20 mM Tris-HCl pH 7.5, 5% glycerol, 50 mM NaCl (a further '20 mM' printed without component), 1 nM labelled RNA, 25 C. The settings on record: protein: recombinant; tags: His6 cleaved (thrombin); label: 5'-fluorescein (FP).
The next series deals with TbRGG2 RRM-Cterm W215A (Trypanosoma brucei, UniProt Q389P7 193-310, W205A). The description is as above. Particulars: protein: recombinant; tags: His6 cleaved (thrombin); chain copies: 2; label: 5'-fluorescein (FP).

“TbRGG2 RRM-Cterm (residues 203–320) (domain or fragment)”: the stoichiometry N in series [1] and in series [2] was 2 each time.

B1: U20 (ssRNA)
RNA: UUUUUUUUUUUUUUUUUUUU
In the case of B1, the binding result with TbRGG2 RRM W215A and with TbRGG2 RRM-Cterm W215A was “no binding” each time.

Usually stoichiometry N stands for a count of units in the complex or per binding partner.
